From publication PMC4742754, “Biochemical and Structural Characterization of the Interaction between the Siderocalin NGAL/LCN2 (Neutrophil Gelatinase-associated Lipocalin/Lipocalin 2) and the N-terminal Domain of Its Endocytic Receptor SLC22A17*” (The Journal of Biological Chemistry, 2015)

Tests used:
[1] = biological target: N-terminal domain of the human lipocalin 2 receptor (hLCN2-R-NTD), wild type (human) (UniProt Q8WUG5); assay: ITC; apoNGAL (500 μM) in the syringe, hLCN2-R-NTD form (50 μM) in the cell; 25 °C, 20 mM Tris, pH 7.4, 50 mM NaCl; single binding site fit
[2] = biological target: hLCN2-R-NTD double mutant (hLCN2-R-NTD-DM), Cys-15–Cys-94 mutated out (human) (UniProt Q8WUG5); assay: as above
[3] = biological target: hLCN2-R-NTD quadruple mutant (hLCN2-R-NTD-QM) (human) (UniProt Q8WUG5); assay: as above
[4] = biological target: hLCN2-R-NTD quadruple mutant (hLCN2-R-NTD-QM) (human) (UniProt Q8WUG5); assay: NMR 15N CPMG relaxation dispersion; 15N-labelled hLCN2-R-NTD-QM with 0.05, 0.1 and 0.15 eq of unlabelled NGAL; 25 °C; two-state exchange fit, kex and populations as global parameters for the C-terminal residues
[5] = biological target: T1, human neutrophil gelatinase-associated lipocalin, hNGAL(C87S) (human, UniProt P80188 21-198, C87S); assay: MST; GFP-hLCN2-R-NTD fixed at 500 nM, apoNGAL varied 0–300 μM; 20 mM Tris/HCl, pH 7.4, 25 °C; settings: both partners purified
T1 construct: human NGAL (LCN2), coding region amplified from pGEX-4T-hNGAL(C87S); The holo form is the same protein loaded with ferric enterobactin (a small molecule); it is told apart by the assay; the wild type was made only for the spin label; also called apoNGAL; LCN2; not shown: His6, N-terminal, cleaved

[6] = biological target: T1, human neutrophil gelatinase-associated …; assay: MST; GFP-hLCN2-R-NTD fixed at 500 nM, NGAL/[FeIII(Ent)]3- (NGAL loaded with ferric enterobactin) varied 0–300 μM; 20 mM Tris/HCl, pH 7.4, 25 °C; settings: both partners purified

T1 sequence (P80188 21-198 C107S): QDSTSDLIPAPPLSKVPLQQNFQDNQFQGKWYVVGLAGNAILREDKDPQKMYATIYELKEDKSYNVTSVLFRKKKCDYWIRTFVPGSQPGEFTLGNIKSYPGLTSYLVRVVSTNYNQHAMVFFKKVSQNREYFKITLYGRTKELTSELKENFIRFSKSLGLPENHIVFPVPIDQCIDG

Kd [1] [µM]	dH [1] [kcal/mol]	stoichiometry N [1]	Kd [2] [µM]	dH [2] [kcal/mol]	Kd [3] [µM]	dH [3] [kcal/mol]	kex (0.1 eq of NGAL) [4] [s⁻¹]	kex (0.15 eq of NGAL) [4] [s⁻¹]	population of bound state (0.1 eq of NGAL) [4] [%]	Kd [5] [µM]	Kd [6] [µM]	Molecule
10	-4.5	1	9	-2.1	8	-1.4	1300	1200	1			human neutrophil gelatinase-associated lipocalin, hNGAL(C87S) (from UniProt P80188 21-198) (ligand)
										6.6	20.7	GFP-hLCN2-R-NTD (domain or fragment, Limits: printed residues 1-105 are numbered on the 538-aa isoform (NM_020372); the 649-aa entry is taken to carry a 111-residue N-terminal extension (649-538), so offset +111 (Cys15/59/70/94 = …)) MASDPIFTLAPPLHCHYGAFPPNASGWEQPPNASGVSVASAALAASAASRVATSTDPSCSGFAPPDFNHCLKDWDYNGLPVLTTNAIGQWDLVCDLGWQVILEQI
